Test results published in publication PMC5462797, “A protein-protein interaction dictates Borrelial infectivity” (Scientific Reports, 2017).

B1: BB0238 (purified recombinant, wild type) (natural protein)
chain: QGSSSYIDKQKELAIFYYEVGQRYINVGKIKKGKLFQAKALKIYPDLKKGFDIKLAVKELDARIKDDNPKVVMLEDIKLEEIPGIVHEKIEINDFTNAPKIEYIAQRERSKNQDKIIKFQFGKFARALISRNFDLFDSVIADKVNVMGQFESKNDFISTLSSASSKADADELEYLSVDDYYDLKSLKISKSNDTSFAVNVNAKKNDVTKNFPFWKERQTLIFTTEDDNNWFLSSIN
notes: BB0238 of Borrelia burgdorferi; monomer-dimer mixture in solution; also called BB0238 WT; intact BB0238
B2: BB0323 (residues 22–242) (domain or fragment)
chain: KTPPESRESKNAKIAQPDNKNFQLRDIKDIKNELIRERGHLFYSKEFNEAERLEEAMKQSFSKKKAIEGNEIALKVLERYKTIIRETREKKEKTNYLKENIEKYLNDAEANEAYIWIPLEIDEVNNLYFEATRKYKNYDLDNALDMYSKAFNRAQQAAKNAKEAKALKETDERMYKQLKALEAASNLPIYSNNKLIKPSPWNGRAFIKERNSHLNLLNTNK
notes: BB0323 of Borrelia burgdorferi, residues 22-242; also called BB0323 N2; BB0323^22-242

Key:
[1] = biological target: B2; test: SEC; analytical SEC of ~1:1 mixtures: 10 uM BB0238-BB0323 on Superdex 200; ~9 uM BB0238^∆IM with 8 uM BB0323 22-242 on Superdex 75; 50 mM Tris-HCl pH 8.0, 0.15 M NaCl, 0.5 mM EDTA, 4 °C; conditions: both partners purified
[2] = biological target: the molecule itself; test: SEC; analytical SEC of single proteins on Superdex 75 (10/300), 50 mM Tris-HCl pH 8.0, 0.15 M NaCl, 0.5 mM EDTA, 4 °C; BB0238 9-44 uM, BB0238^∆IM 10-40 uM, BB0323 (22-242) 8 uM; monomer-dimer

Row | Binder | stoichiometry N [1] | stoichiometry N [2]
1 | B1 | 1 | 2
2 | B2 |  | 2
